Measurements from patent publication CN101798349A (INST BIOENGINEERING AMMS, dated 2010).

Target: T1, uPAR蛋白 (尿激酶型纤溶酶原激活物受体, R&D Systems 807-UK-100) (UniProt Q03405 23-303, limits assumed)
T1 construct: Bought protein; also called 抗原uPAR
Test: SPR, Biacore 3000, CM5 chip, HBS-EP pH 7.4, 0-100 nmol/L, mean of 3 repeats

T1 sequence (Q03405 23-303 limits assumed): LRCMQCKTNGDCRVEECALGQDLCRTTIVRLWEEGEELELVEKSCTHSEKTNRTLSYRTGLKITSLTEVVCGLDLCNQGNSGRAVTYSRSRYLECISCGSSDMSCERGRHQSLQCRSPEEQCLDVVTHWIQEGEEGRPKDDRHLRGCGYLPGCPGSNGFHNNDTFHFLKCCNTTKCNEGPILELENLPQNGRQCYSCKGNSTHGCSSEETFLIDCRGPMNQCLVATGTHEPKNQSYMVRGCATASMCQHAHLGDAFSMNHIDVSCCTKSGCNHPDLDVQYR

B1: 抗uPAR人源化抗体Y2B (antibody, V domains shown)
VH: EVQLVQSGAEVKKPGSSVKVSCKASGYTFTDYYIHWVRQAPGQGLEWIGWIFHGSDNTEYNEKFKSKATITADESTSTAYMELSSLRSEDTAVFYCARWGPHWYFDAWGRGTLVTVSP
VL: DIQMTQSPSTLSASVGDRVTITCRASSSVSYIHWYQQKPGRAPKPLMYEASSRATGVPSRFSGSGSGTEYTLTISSLQSDDFATYYCQQWNYPFTFGQGTKLEIKR
notes: also called 抗uPAR抗体Y2B; Y2B抗体
- Kd: 14.9 nM
